These results are taken from article doi:10.1101/2024.12.23.630085, “Accurate sequence-to-affinity models for SH2 domains from multi-round peptide binding assays coupled with free-energy regression” (bioRxiv, 2025).

Non-standard residues stand in square brackets, D forms with d. pY = N[C@@H](Cc1ccc(OP(=O)(O)O)cc1)C(=O)O

First the molecules themselves.
B1: TRAF3IP3 pY322 (peptide)
peptide: Ac-QEWRSQ[pY]EALKEG-NH2
notes: flank added to the 11-residue stretch (surmised: last residue of the library's constant GQSGQ); TRAF3IP3, human, around pY322; flank added to the 11-residue stretch (surmised: first residue of the library's constant GGQSG); source: synthetic peptide (SynPeptide, China)
B2: PLCG2 pY 753 (peptide)
peptide: Ac-QDINSL[pY]DVSRMG-NH2
notes: flank added to the 11-residue stretch (surmised: last residue of the library's constant GQSGQ); PLCG2, human, around pY753; flank added to the 11-residue stretch (surmised: first residue of the library's constant GGQSG); also called PLCγ2 pY753; source: synthetic peptide (SynPeptide, China)
B3: CD84 pY296 (peptide)
peptide: Ac-QAESRI[pY]DEILQG-NH2
notes: flank added to the 11-residue stretch (surmised: last residue of the library's constant GQSGQ); CD84, human, around pY296; flank added to the 11-residue stretch (surmised: first residue of the library's constant GGQSG); source: synthetic peptide (SynPeptide, China)
B4: SIGLEC5 pY544 (peptide)
peptide: Ac-QPSTTE[pY]SEIKTG-NH2
notes: flank added to the 11-residue stretch (surmised: last residue of the library's constant GQSGQ); SIGLEC5, human, around pY544; flank added to the 11-residue stretch (surmised: first residue of the library's constant GGQSG); source: synthetic peptide (SynPeptide, China)
B5: PTPN6 pY564 (peptide)
peptide: Ac-QHKEDV[pY]ENLHTG-NH2
notes: flank added to the 11-residue stretch (surmised: last residue of the library's constant GQSGQ); PTPN6 (SHP1), human, around pY564; flank added to the 11-residue stretch (surmised: first residue of the library's constant GGQSG); also called SHP1 pY564; source: synthetic peptide (SynPeptide, China)
B6: SLAP-130 pY771 (peptide)
peptide: Ac-QNDGEI[pY]DDIADG-NH2
notes: flank added to the 11-residue stretch (surmised: last residue of the library's constant GQSGQ); SLAP-130, human, around pY771; flank added to the 11-residue stretch (surmised: first residue of the library's constant GGQSG); source: synthetic peptide (SynPeptide, China)
B7: Syn-G2-6 (synthetic) (peptide)
peptide: Ac-QHRLNN[pY]ENNRLG-NH2
notes: source: synthetic peptide (SynPeptide, China)
B8: Syn-G2-5 (synthetic) (peptide)
peptide: Ac-QLGHQR[pY]HNITPG-NH2
notes: as for B7
B9: Syn-G2-2 (synthetic) (peptide)
peptide: Ac-QHNIHS[pY]INIPPG-NH2
notes: as for B7
B10: Syn-G2-7 (synthetic) (peptide)
peptide: Ac-QIEVGT[pY]QNPHNG-NH2
notes: as for B7
B11: CSF1R pY699 (peptide)
peptide: Ac-QEGGVD[pY]KNIHLG-NH2
SMILES: CC[C@H](C)[C@H](NC(=O)[C@H](CC(N)=O)NC(=O)[C@H](CCCCN)NC(=O)[C@H](Cc1ccc(OP(=O)(O)O)cc1)NC(=O)[C@H](CC(=O)O)NC(=O)[C@@H](NC(=O)CNC(=O)CNC(=O)[C@H](CCC(=O)O)NC(=O)[C@H](CCC(N)=O)NC(C)=O)C(C)C)C(=O)N[C@@H](Cc1c[nH]cn1)C(=O)N[C@@H](CC(C)C)C(=O)NCC(N)=O
notes: flank added to the 11-residue stretch (surmised: last residue of the library's constant GQSGQ); CSF1R, human, around pY699; flank added to the 11-residue stretch (surmised: first residue of the library's constant GGQSG); also called CSFR pY699; source: synthetic peptide (SynPeptide, China)
B12: CD3Z pY83 (peptide)
peptide: Ac-QGRREE[pY]DVLDKG-NH2
SMILES: CC(=O)N[C@@H](CCC(N)=O)C(=O)NCC(=O)N[C@@H](CCCNC(=N)N)C(=O)N[C@@H](CCCNC(=N)N)C(=O)N[C@@H](CCC(=O)O)C(=O)N[C@@H](CCC(=O)O)C(=O)N[C@@H](Cc1ccc(OP(=O)(O)O)cc1)C(=O)N[C@@H](CC(=O)O)C(=O)N[C@H](C(=O)N[C@@H](CC(C)C)C(=O)N[C@@H](CC(=O)O)C(=O)N[C@@H](CCCCN)C(=O)NCC(N)=O)C(C)C
notes: flank added to the 11-residue stretch (surmised: last residue of the library's constant GQSGQ); CD3 zeta chain, human, around pY83; flank added to the 11-residue stretch (surmised: first residue of the library's constant GGQSG); also called CD3ζ pY83; source: synthetic peptide (SynPeptide, China)

The first assay deals with T1, c-Src SH2 domain (UniProt P12931-1 151-248, biotin (biotinylated SH2 domain of the selection)).
T1 construct: SH2 domain of c-Src kinase; source: purified
As to the kind of experiment: fluorescence polarisation; competition mode; unlabelled phosphopeptide against 30 nM FITC-Ahx-GDG-pY-EEISPLLL-NH2 and 122.745 nM c-Src SH2 (123.745 to 125.745 in three rows; Table S3). The conditions noted are these: both partners purified.
For B1, the dissociation constant Kd is 6480 nM.

Regarding B2, binding was put at a Kd of 12300 nM.

The molecule B3 yielded a Kd of 28.1 nM.

B4 displayed a Kd of 282 nM. This Kd lies about 10-fold higher than the previous one.

Regarding B5, binding was characterised by a dissociation constant (Kd) of 909 nM.

In the case of B6, the Kd amounted to 94 nM. Against the preceding molecule, the Kd is about 9.7-fold lower.

A further assay deals with T2, Grb2 SH2 domain (UniProt P62993 60-152, biotin (biotinylated SH2 domain of the selection)).
T2 construct: SH2 domain of the adapter protein Grb2; source: purified
T2 sequence (P62993 60-152): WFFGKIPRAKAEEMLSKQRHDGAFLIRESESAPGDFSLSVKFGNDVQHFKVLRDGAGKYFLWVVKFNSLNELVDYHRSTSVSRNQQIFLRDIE
As to the kind of experiment: fluorescence polarisation; competition mode; unlabelled phosphopeptide against 30 nM FITC-Ahx-FDDPS(pY)VNVQN and 123 nM Grb2 SH2 (Table S3). The conditions noted are these: both partners purified.
As to B7, the equilibrium dissociation constant (Kd) was found to be 2250 nM. In other words, the single-digit micromolar range.

B8 returned a Kd of 487 nM.

Molecule B9 displayed a Kd of 3.99 nM.

B10: the affinity, expressed as Kd, was 3240 nM.

The target in another assay is T3, Lyn SH2 domain (121-228) (human, UniProt P07948 121-228, biotin (on the AviTag)).
T3 construct: source: E. coli C43(DE3) with BirA helper plasmid, purified (HisTrap, anion exchange, Ulp1 cleavage, SEC); not shown: His6-SUMO, N-terminal, cleaved; AviTag, C-terminal, kept
T3 sequence (P07948 121-228): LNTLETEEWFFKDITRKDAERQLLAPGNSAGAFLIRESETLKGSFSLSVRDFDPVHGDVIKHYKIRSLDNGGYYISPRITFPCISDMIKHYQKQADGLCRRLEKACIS
Briefly: fluorescence polarisation; competition mode; unlabelled phosphopeptide against 30 nM FITC-Ahx-GDG-pY-EEISPLLL-NH2 and 106.5 nM Lyn SH2 (Table S3). The conditions noted are these: both partners purified.
Molecule B11 returned an equilibrium dissociation constant (Kd) of 22800 nM.

B12 returned a Kd of 2950 nM. This Kd is about 7.7-fold lower than that of the molecule before.

On to B1, for which the equilibrium dissociation constant (Kd) is 3940 nM. This Kd and that of the molecule before are within 1.5-fold of each other.

B2 gave a Kd of 11700 nM. This Kd is about 3-fold higher than that of the molecule before.

For the molecule B3, the Kd was 91 nM.

In turn, B4 displayed a dissociation constant (Kd) of 362 nM.

For B5, the Kd stood at 943 nM. Against the preceding molecule, the Kd is about 2.6-fold higher.

The molecule B6 registered a Kd of 96.8 nM.
